{
  "source": "paper PMC2749146",
  "origin": "cited, not measured here",
  "test_system": "Cys",
  "assay": "UV-vis",
  "settings": "Reduced; the protein unfolds below pH 3, so deprotonation and unfolding overlap.",
  "data": [
    {"substance": "DsbA (EcDsbA) (Escherichia coli)", "values": [
      {"measurement": "pKa", "result": "∼3.5"}
    ]}
  ]
}
